B1: Synphilin-1 (Homo sapiens), Q9Y6H5 (parent)
chain: MEAPEYLDLDEIDFSDDISYSVTSLKTIPELCRRCDTQNEDRSVSSSSWNCGISTLITNTQKPTGIADVYSKFRPVKRVSPLKHQPETLENNESDDQKNQKVVEYQKGGESDLGPQPQELGPGDGVGGPPGKSSEPSTSLGELEHYDLDMDEILDVPYIKSSQQLASFTKVTSEKRILGLCTTINGLSGKACSTGSSESSSSNMAPFCVLSPVKSPHLRKASAVIHDQHKLSTEETEISPPLVKCGSAYEPENQSKDFLNKTFSDPHGRKVEKTTPDCQLRAFHLQSSAAESKPEEQVSGLNRTSSQGPEERSEYLKKVKSILNIVKEGQISLLPHLAADNLDKIHDENGNNLLHIAASQGHAECLQHLTSLMGEDCLNERNTEKLTPAGLAIKNGQLECVRWMVSETEAIAELSCSKDFPSLIHYAGCYGQEKILLWLLQFMQEQGISLDEVDQDGNSAVHVASQHGYLGCIQTLVEYGANVTMQNHAGEKPSQSAERQGHTLCSRYLVVVETCMSLASQVVKLTKQLKEQTVERVTLQNQLQQFLEAQKSEGKSLPSSPSSPSSPASRKSQWKSPDADDDSVAKSKPGVQEGIQVLGSLSASSRARPKAKDEDSDKILRQLLGKEISENVCTQEKLSLEFQDAQASSRNSKKIPLEKRELKLARLRQLMQRSLSESDTDSNNSEDPKTTPVRKADRPRPQPIVESVESMDSAESLHLMIKKHTLASGGRRFPFSIKASKSLDGHSPSPTSESSEPDLESQYPGSGSIPPNQPSGDPQQPSPDSTAAQKVATSPKSALKSPSSKRRTSQNLKLRVTFEEPVVQMEQPSLELNGEKDKDKGRTLQRTSTSNESGDQLKRPFGAFRSIMETLSGNQNNNNNYQAANQLKTSTLPLTSLGRKTDAKGNPASSASKGKNKAA

Variants of: B1
Conditions: with syua_human SNCA

effect of a mutation on the interaction | Variant
decreasing interaction | A519N
decreasing interaction | V523N
decreasing interaction | K524A
decreasing interaction | K527A

Reference: IntAct's records for PubMed 19762560
